Target: aCD19A (anti-CD19-A192) Nanoworm
Assay: SEC-MALS

B1: aCD19A (anti-CD19-A192) Nanoworm (scFv, V domains shown)
VH: QVQLQQSGAELVRPGSSVKISCKASGYAFSSYWMNWVKQRPGQGLEWIGQIWPGDGDTNYNGKFKGKATLTADESSSTAYMQLSSLASEDSAVYFCARRETTTVGRYYYAMDYWGQGTTVTVSS
VL: DIQLTQSPASLAVSLGQRATISCKASQSVDYDGDSYLNWYQQIPGQPPKLLIYDASNLVSGIPPRFSGSGSGTDFTLNIHPVEKVDAATYHCQQSTEDPWTFGGGTKLEIK
Binder B1 has a stoichiometry N of 186.
